Measured values reported in US20110014669A1, “Production of 1,4 Butanediol in a Microorganism” (Microbia, Inc., priority 2009, published 2011).

Assays:
[1] = tested on: 5-hydroxy-2-oxopentanoate; assay: In vitro substrate conversion assay, step A5; assay type: biochemical; set-up: key: +: measureable activity detected in the assay; −: no measurable activity detected in the assay; settings: BDO biosynthetic pathway step A5
Method: (§1) In Vitro Substrate Conversion. Most of the enzyme assays described above are based on recording changes in absorbance at a given wavelength. In addition to such spectrophotometric readouts, these assays can also be analyzed by more direct methods using an endpoint assay where the reaction is terminated after a given period of time and the mixture is analyzed via HPLC or LC-MS methods.
(§2) The aldehyde dehydrogenase linked reaction was used for step A5.

[2] = tested on: 5-hydroxy-2-oxopentanoate; assay: Bioconversion (feeding) assay, step A5; assay type: cell-based; set-up: key: +: measureable activity detected in the assay; −: no measurable activity detected in the assay; settings: BDO biosynthetic pathway step A5
Method: (§3) Bioconversion assays. The activity of a candidate enzyme towards a given substrate can also be evaluated in vivo using a simple feeding assay. A strain expressing the candidate enzyme is grown in the presence of the substrate for which activity is desired. Samples of the culture are removed periodically and the cells are removed via centrifugation. The culture supernatant is then analyzed (e.g., by LC-MS) to determine how much of the substrate has been removed and how much of a given product is present.
as §2

[3] = tested on: 5-hydroxy-2-oxopentanoate (5-HOP); assay: Kinetics of purified His-tagged KdcAL1 on 5-HOP (aldehyde dehydrogenase linked reaction); assay type: biochemical
Method: (§4) Aldehyde Dehydrogenase linked reaction: In another example of a coupled assay, the decarboxylation of a substrate is linked to the activity of an aldehyde dehydrogenase (Sigma catalog number A6338) reaction that converts the aldehyde product to a carboxylic acid with the concomitant reduction of NAD+. The overall activity of the coupled reactions is assessed spectrophotometrically by measuring the increase in absorbance at 340 nm which corresponds to the NAD+ reduction. One enzyme unit is defined as the amount of enzyme that catalyzes the decarboxylation of 1 μmol of substrate per minute.
(§5) Standard molecular biology techniques were used to create an E. coli expression construct encoding KdcAL1 having three histidine (His) residues attached to its C-terminus. This His-tagged enzyme was over-expressed in E. coli, purified and assayed to assess its activity towards a natural substrate, 3-methyl-2-oxopentanoate (3-MOP) and its BDO pathway substrate, 5-hydroxy-2-oxopentanoate (5-HOP). The purified enzyme was assayed as described in example 3 above (step A5, Aldehyde dehydrogenase linked reaction). […] This Vmax is about 10 times lower than the rate of 3-MOP activity.

[4] = tested on: 3-methyl-2-oxopentanoate (3-MOP); assay: Kinetics of purified His-tagged KdcAL1 on 3-MOP (aldehyde dehydrogenase linked reaction); assay type: biochemical; settings: substrate 3-MOP; purified His-tagged enzyme
Method: as §4, §5

[5] = tested on: 5-hydroxy-2-oxopentanoate; assay: Enzyme assay, decarboxylase (step A5), aldehyde dehydrogenase linked reaction; assay type: biochemical; set-up: key: +: measureable activity detected in the assay; −: no measurable activity detected in the assay; settings: BDO biosynthetic pathway step A5
Summary of the method: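 Crude lysates of E. coli or C. glutamicum expressing the candidate decarboxylase (0.25 mM IPTG induction) were assayed against vector-only control lysates, using natural substrate and pathway metabolite. Decarboxylation was coupled to aldehyde dehydrogenase converting the aldehyde product to acid with NAD+ reduction, followed as absorbance increase at 340 nm.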

5-hydroxy-L-norvaline [6] = assay: In vitro substrate conversion assay, step A4; assay type: biochemical; set-up: key: +: measureable activity detected in the assay; −: no measurable activity detected in the assay; settings: BDO biosynthetic pathway step A4
Method: as §1, §2

5-hydroxy-L-norvaline [7] = assay: Bioconversion (feeding) assay, step A4; assay type: cell-based; set-up: key: +: measureable activity detected in the assay; −: no measurable activity detected in the assay; settings: BDO biosynthetic pathway step A4
Method: as §3, §2

5-hydroxy-L-norvaline [8] = assay: Enzyme assay, aminotransferase (step A4), cell lysates; assay type: biochemical; set-up: key: +: measureable activity detected in the assay; −: no measurable activity detected in the assay; settings: BDO biosynthetic pathway step A4
Method: (§6) Enzyme expression and crude lysate preparation. The enzymatic activity of each candidate enzyme is evaluated, first in E. coli and subsequently in C. glutamicum. It will be apparent to one of skill in the art that the expression and lysate preparations may need to be modified depending on the host cell and recombinant gene of interest.
(§7) E. coli: E. coli strains transformed with expression clones, for example, pUC18 or MB4124 based clones having a medium strong constitutive promoter regulating the recombinant gene of interest, are grown aerobically in LB medium (Difco) containing the appropriate antibiotic(s). At an OD600 of 0.5, IPTG is added to a final concentration of 0.25 mM. The cultures are grown to a final OD600 of 1.5 at which time the cells are collected and harvested by centrifugation. Cell pellets are resuspended in BugBuster (Novagen) reagent containing benzonase and lysozyme. Alternatively, E. coli strains transformed with expression clones, are grown overnight aerobically at 37° C. in BHI containing the appropriate antibiotic(s). 300 μL of fresh overnight culture is used to inoculate 2.7 mL BHI containing 0.25 mM IPTG and the appropriate antibiotic. The cultures are grown aerobically for 4-5 hours at 37° C. at which time the cells are collected and harvested by centrifugation. Cell pellets are frozen at −80° C. for at least 15 minutes, then thawed and resuspended in BugBuster (Novagen) reagent. Lysis and lysate collection are performed according to the manufacturer's instructions and, for example, may involve use of a sonicator and/or French press. Cleared lysates are stored on ice until enzyme assays are performed.
C. glutamicum: C. glutamicum strains transformed with MB4124 expression clones containing the recombinant gene of interest are grown aerobically in BHI broth supplemented with the proper antibiotic(s). At an OD600 of 0.5, IPTG is added to a final concentration of 0.25 mM. The cultures are grown to a final OD600 of 1.5 at which time the cells are collected and harvested by centrifugation. The pellet is washed once in one volume of water and resuspended in lysis buffer (1.0 ml 1.0 M HEPES buffer, pH 7.5, 0.5 ml 1M KOH, 10 μl 0.5M EDTA, protease inhibitor cocktail, water to 5 ml; the final pH will vary depending on the individual enzyme being tested) and one volume of 0.1 mm acid washed glass beads. The mixture is repeatedly alternately vortexed and held on ice for 15 seconds, eight times. After centrifugation for 5 min at 4,000 rpm, the supernatant lysate is removed and respun for 20 min at 10,000 rpm. Alternatively, C. glutamicum strains transformed with MB4124 expression clones containing the recombinant gene of interest are grown aerobically overnight in BHI broth supplemented with the proper antibiotic(s). Five mL of fresh overnight culture is used to inoculate 200 mL BHI containing 0.25 mM IPTG and the appropriate antibiotic. The cultures are grown aerobically at 30° C. for 5-7 hours at which time the cells are collected and harvested by centrifugation at 4° C. The pellet is resuspended in 15 mL ice cold 39 mM KH2PO4, 61 mM K2HPO4, 0.5 M KCl and lysed using a BioSpec BeadBeater and following the manufacturer's instructions. […]
(§8) Protein Assays. Protein concentrations in lysates are determined according to the methods of Bradford et al. (Anal. Biochem. 72:248-254 [1976]) or by the method of Smith et al. (Anal. Biochem. 150(1):76-85 [1985]) and lysates are assayed according to the methods below. […]

4-hydroxybutanal [9] = assay: Enzyme assay, oxidoreductase (step A6), cell lysates; assay type: biochemical; set-up: key: +: measureable activity detected in the assay; −: no measurable activity detected in the assay; settings: BDO biosynthetic pathway step A6
Method: as §6
as §7, with “performed. […]” for “performed.”
as §8

4-hydroxybutanal [10] = assay: Bioconversion (feeding) assay, step A6; assay type: cell-based; set-up: key: +: measureable activity detected in the assay; −: no measurable activity detected in the assay; settings: BDO biosynthetic pathway step A6
Method: as §3, §2

4-hydroxybutanal [11] = assay: In vitro substrate conversion assay, step A6; assay type: biochemical; set-up: key: +: measureable activity detected in the assay; −: no measurable activity detected in the assay; settings: BDO biosynthetic pathway step A6
Method: as §1, §2

B1: KdcALl: Branched-chain alpha-keto acid decarboxylase from Lactococcus lactis, step A5 enzyme candidate, SEQ ID NO. 36; His-tagged when purified (protein, listed as Lactococcus lactis)
chain: MYTVGDYLLDRLHELGIEEIFGVPGDYNLQFLDQIISREDMKWIGNANELNASYMADGYARTKKAAAFLTTFGVGELSAINGLAGSYAENLPVVEIVGSPTSKVQNDGKFVHHTLADGDFKHFMKMHEPVTAARTLLTAENATYEIDRVLSQLLKERKPVYINLPVDVAAAKAEKPALSLEKESSTTNTTEQVILSKIEESLKNAQKPVVIAGHEVISFGLEKTVTQFVSETKLPITTLNFGKSAVDESLPSFLGIYNGKLSEISLKNFVESADFILMLGVKLTDSSTGAFTHHLDENKMISLNIDEGIIFNKVVEDFDFRAVVSSLSELKGIEYEGQYIDKQYEEFIPSSAPLSQDRLWQAVESLTQSNETIVAEQGTSFFGASTIFLKSNSRFIGQPLWGSIGYTFPAALGSQIADKESRHLLFIGDGSLQLTVQELGLSIREKLNPICFIINNDGYTVEREIHGPTQSYNDIPMWNYSKLPETFGATEDRVVSKIVRTENEFVSVMKEAQADVNRMYWIELVLEKEDAPKLLKKMGKLFAEQNK
modifications: His-tag when purified
In Vitro Substrate Conversion Assay [1]: +
Bioconversion Assay [2]: +
Vmax for 5-HOP lower than the rate of 3-MOP activity ([3]; 5-HOP versus 3-MOP): about 10 times
Km ([3]; substrate 5-HOP, purified His-tagged enzyme): 49 mM
Vmax ([3]; substrate 5-HOP, purified His-tagged enzyme, FIG. 24): approximately 0.15 U/mg
Km [4]: 1.3 mM
Enzyme Assay [5]: +

B2: BcaTPf: Branched-chain-amino-acid transaminase from Pseudomonas fluorescens, step A4 enzyme candidate, SEQ ID NO. 58 (protein, listed as Pseudomonas fluorescens)
chain: MGNESINWDKLGFDYIKTDKRFLQVWKNGEWQEGTLTDDNVLHISEGSTALHYGQQCFEGLKAYRCKDGSINLFRPDQNAARMQRSCARLLMPHVPTDVFIDACKQVVKANEHFIPPYGSGGALYLRPFVIGTGDNIGVRTAPEFIFSVFCIPVGAYFKGGLVPHNFQISTFDRAAPQGTGAAKVGGNYAASLMPGSEAKKAGFADAIYLDPMTHSKIEEVGSANFFGITHDNQFITPKSPSVLPGITRLSLIELAKTRLGLDVVEGEVFIDKLDQFKEAGACGTAAVISPIGGIQYNGKLHVFHSETEVGPITQKLYKELTGVQTGDVEAPQGWIVKV
In Vitro Substrate Conversion Assay (5-hydroxy-L-norvaline [6]): +
Bioconversion Assay (5-hydroxy-L-norvaline [7]): +
Enzyme Assay (5-hydroxy-L-norvaline [8]): +

B3: ADH6Sc: Alcohol dehydrogenase from Saccharomyces cerevisiae, step A6 enzyme candidate, SEQ ID NO. 47 (protein, listed as Saccharomyces cerevisiae)
chain: MSYPEKFEGIAIQSHEDWKNPKKTKYDPKPFYDHDIDIKIEACGVCGSDIHCAAGHWGNMKMPLVVGHEIVGKVVKLGPKSNSGLKVGQRVGVGAQVFSCLECDRCKNDNEPYCTKFVTTYSQPYEDGYVSQGGYANYVRVHEHFVVPIPENIPSHLAAPLLCGGLTVYSPLVRNGCGPGKKVGIVGLGGIGSMGTLISKAMGAETYVISRSSRKREDAMKMGADHYIATLEEGDWGEKYFDTFDLIVVCASSLTDIDFNIMPKAMKVGGRIVSISIPEQHEMLSLKPYGLKAVSISYSALGSIKELNQLLKLVSEKDIKIWVETLPVGEAGVHEAFERMEKGDVRYRFTLVGYDKEFSD
Enzyme Assay (4-hydroxybutanal [9]): +
Bioconversion Assay (4-hydroxybutanal [10]): +
In Vitro Substrate Conversion Assay (4-hydroxybutanal [11]): +
